The source of these data is publication PMC9485057.

Assay [1] addresses FbxwD-FLAG (endogenous locus tagged) (D. discoideum). As to the kind of experiment: co-IP; FbxwD-FLAG precipitated with anti-FLAG M2 magnetic beads from S21 lysates of phyA+ or phyA– vegetative or slug cells, 4 °C 1 h; Skp1 detected by Western blot (pAb UOK77), densitometry.
Assay [2] addresses JcdI-FLAG (endogenous locus tagged) (D. discoideum) (UniProt Q55CL5). Description: co-IP; FLAG-JcdI or JcdI-FLAG precipitated with anti-FLAG M2 beads from NP-40 lysates of vegetative or slug cells, 4 °C 1 h, washed in 50 mM Tris-HCl pH 8.0, 150 mM NaCl, 0.2% NP-40; Skp1 detected by Western blot.
Sequence of UniProt Q55CL5 (Q55CL5 entry or part of it): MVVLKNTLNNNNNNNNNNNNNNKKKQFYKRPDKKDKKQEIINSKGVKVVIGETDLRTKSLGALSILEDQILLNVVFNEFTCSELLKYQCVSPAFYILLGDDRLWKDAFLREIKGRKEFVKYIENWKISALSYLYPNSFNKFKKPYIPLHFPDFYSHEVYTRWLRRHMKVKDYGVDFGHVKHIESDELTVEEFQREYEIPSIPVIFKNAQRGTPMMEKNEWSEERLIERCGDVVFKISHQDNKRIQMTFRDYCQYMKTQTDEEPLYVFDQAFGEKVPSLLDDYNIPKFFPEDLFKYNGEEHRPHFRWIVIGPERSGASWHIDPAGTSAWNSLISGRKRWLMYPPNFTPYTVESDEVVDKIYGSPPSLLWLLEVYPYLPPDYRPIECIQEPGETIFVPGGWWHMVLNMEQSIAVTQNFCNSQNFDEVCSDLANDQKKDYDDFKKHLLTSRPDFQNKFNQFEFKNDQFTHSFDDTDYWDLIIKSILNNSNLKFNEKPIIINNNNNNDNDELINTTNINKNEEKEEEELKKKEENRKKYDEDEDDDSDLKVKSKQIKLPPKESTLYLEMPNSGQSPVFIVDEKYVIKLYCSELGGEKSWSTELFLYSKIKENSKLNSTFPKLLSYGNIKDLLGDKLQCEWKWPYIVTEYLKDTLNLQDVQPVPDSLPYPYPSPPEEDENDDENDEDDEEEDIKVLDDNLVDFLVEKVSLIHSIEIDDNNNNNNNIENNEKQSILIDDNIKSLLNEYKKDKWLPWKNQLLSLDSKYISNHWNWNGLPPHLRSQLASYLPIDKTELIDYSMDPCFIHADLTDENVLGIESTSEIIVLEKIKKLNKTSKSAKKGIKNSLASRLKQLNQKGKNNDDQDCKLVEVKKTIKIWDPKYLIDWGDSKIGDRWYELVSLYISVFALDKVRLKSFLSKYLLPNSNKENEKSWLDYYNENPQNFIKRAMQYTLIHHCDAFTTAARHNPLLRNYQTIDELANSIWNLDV

As for “Skp1 (endogenous, from phyA+ / gnt1+ cells; hydroxylated and glycosylated) (from UniProt P52285 1-162) (natural protein)”, in assay [1], the fold more Skp1 co-IPed with FbxwD-FLAG, phyA+ versus phyA– slug cells stood at 4 fold and the fold more Skp1 co-IPed with FbxwD-FLAG, phyA+ versus phyA– vegetative cells amounted to 2.5 fold. In assay [2], the fold more Skp1 (Skp1:JcdI ratio) co-IPed with JcdI-FLAG, gnt1+ versus gnt1– vegetative cells is 2 fold and the fold preferential interaction with JcdI-FLAG, gnt1+ versus gnt1– slug cells was 2 fold.
